Results from patent US20260115299A1, “CALSEQUESTRIN-BASED METAL ION REACTIVE PARTICLE AND USES THEREOF” (TOOLBIO. CO.,LTD., priority 2022, published 2026).

How the values were obtained:
HaCaT cells [1] = assay: In vitro migration test (scratch); type: cell-based; conditions: 10 nM, 24-hour intervals, compared with native KGF
Experimental: HaCaT cells were aliquoted into 24-well plates at a specific cell/well and incubated at 37° C. in a 5% CO2 incubator with 10% FBS and 1% P/S-DMEM for one day. Starvation was performed with FBS Free DMEM for one day. Cells were scratched in a straight line using a 1000 ? pipette tip. After washing twice with DPBS, CSQ-KGF, CSQ, and KGF were added to FBS Free DMEM at a concentration of 10 nM, and the sample was divided so that the total volume became 500 ? . While culturing in a 5% CO2 incubator at 37° C. scratches were observed using a phase-contrast microscope at 24-hour intervals from […], and photographs were taken. The extent of wound closure was compared by analyzing the scratch area of the captured images using ImageJ.

HaCaT cells [2] = assay: In vitro proliferation test (XTT); type: cell-based; conditions: 2.5 nM, 2 days, compared with native KGF
Experimental: HaCaT cells in 96-well plates were aliquoted at a specific cell/well and incubated at 37° C. in a 5% CO2 incubator with 10% FBS and 1% P/S-DMEM for one day. Starvation was performed with FBS Free DMEM for one day. After washing twice with DPBS, CSQ-KGF, CSQ, and KGF were added to FBS-free DMEM at a concentration of 2.5 nM, and the sample was divided so that the total volume became 200 ? . After incubation in an incubator for 2 days, XTT cell availability kit reagents were aliquoted, and then 450 nm absorbance was determined with a microplate reader.

B1: CSQ-KGF: fusion protein of human calsequestrin CSQ1 (SEQ ID No. 1) and KGF (SEQ ID No. 12) (protein)
chain: QEGLDFPEYDGVDRVINVNAKNYKNVFKKYEVLALLYHEPPEDDKASQRQFEMEELILELAAQVLEDKGVGFGLVDSEKDAAVAKKLGLTEVDSMYVFKGDEVIEYDGEFSADTIVEFLLDVLEDPVELIEGERELQAFENIEDEIKLIGYFKSKDSEHYKAFEDAAEEFHPYIPFFATFDSKVAKKLTLKLNEIDFYEAFMEEPVTIPDKPNSEEEIVNFVEEHRRSTLRKLKPESMYETWEDDMDGIHIVAFAEEADPDGFEFLETLKAVAQDNTENPDLSIIWIDPDDFPLLVPYWEKTFDIDLSAPQIGVVNVTDADSVWMEMDDEEDLPSAEELEDWLEDVLEGEINTEDDDDDDDDMCNDMTPEQMATNVNCSSPERHTRSYDYMEGGDIRVRRLFCRTQWYLRIDKRGKVKGTQEMKNNYNIMEIRTVAVGIVAIKGVESEFYLAMNKEGKLYAKKECNEDCNFKELILENHYNTYASAKWTHNGGEMFVALNQKGIPVRGKKTKKEQKTAHFLPMAIT
B1 was tested, and the “migration efficacy (extent of wound closure, scratch area)” value (HaCaT cells [1]) was “same efficacy as native KGF” and the “proliferation efficacy (450 nm absorbance, XTT)” value (HaCaT cells [2]) was “same efficacy as native KGF”.
